According to US20200171163A1 (Daiichi Sankyo, published 2020):
Residue numbers refer to the chain shown, from its start.

T1: EC3 deletion mutant of human CDH6 (human, UniProt P55285 54-790)
T1 construct: In p3×FLAG-CMV-9; also called EC3-deleted hCDH6
T1 sequence: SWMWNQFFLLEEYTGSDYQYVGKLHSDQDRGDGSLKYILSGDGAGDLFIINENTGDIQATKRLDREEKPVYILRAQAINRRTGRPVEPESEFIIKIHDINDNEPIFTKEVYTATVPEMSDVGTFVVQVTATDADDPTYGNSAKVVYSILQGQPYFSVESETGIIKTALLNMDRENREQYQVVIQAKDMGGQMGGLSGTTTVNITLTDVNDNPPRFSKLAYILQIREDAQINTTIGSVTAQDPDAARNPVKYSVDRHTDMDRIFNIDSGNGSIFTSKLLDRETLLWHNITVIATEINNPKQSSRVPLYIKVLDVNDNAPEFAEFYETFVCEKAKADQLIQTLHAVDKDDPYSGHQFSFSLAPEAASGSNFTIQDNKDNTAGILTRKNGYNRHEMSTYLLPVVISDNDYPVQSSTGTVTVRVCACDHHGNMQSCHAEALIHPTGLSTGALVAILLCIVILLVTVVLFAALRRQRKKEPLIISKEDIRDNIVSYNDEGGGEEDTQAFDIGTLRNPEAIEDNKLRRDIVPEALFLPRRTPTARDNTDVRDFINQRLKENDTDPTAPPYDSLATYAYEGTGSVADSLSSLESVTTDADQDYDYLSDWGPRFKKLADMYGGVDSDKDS

T2: rat CDH6 (on cells) (rat, UniProt P55280 54-789)
T2 construct: also called rCDH6
T2 sequence: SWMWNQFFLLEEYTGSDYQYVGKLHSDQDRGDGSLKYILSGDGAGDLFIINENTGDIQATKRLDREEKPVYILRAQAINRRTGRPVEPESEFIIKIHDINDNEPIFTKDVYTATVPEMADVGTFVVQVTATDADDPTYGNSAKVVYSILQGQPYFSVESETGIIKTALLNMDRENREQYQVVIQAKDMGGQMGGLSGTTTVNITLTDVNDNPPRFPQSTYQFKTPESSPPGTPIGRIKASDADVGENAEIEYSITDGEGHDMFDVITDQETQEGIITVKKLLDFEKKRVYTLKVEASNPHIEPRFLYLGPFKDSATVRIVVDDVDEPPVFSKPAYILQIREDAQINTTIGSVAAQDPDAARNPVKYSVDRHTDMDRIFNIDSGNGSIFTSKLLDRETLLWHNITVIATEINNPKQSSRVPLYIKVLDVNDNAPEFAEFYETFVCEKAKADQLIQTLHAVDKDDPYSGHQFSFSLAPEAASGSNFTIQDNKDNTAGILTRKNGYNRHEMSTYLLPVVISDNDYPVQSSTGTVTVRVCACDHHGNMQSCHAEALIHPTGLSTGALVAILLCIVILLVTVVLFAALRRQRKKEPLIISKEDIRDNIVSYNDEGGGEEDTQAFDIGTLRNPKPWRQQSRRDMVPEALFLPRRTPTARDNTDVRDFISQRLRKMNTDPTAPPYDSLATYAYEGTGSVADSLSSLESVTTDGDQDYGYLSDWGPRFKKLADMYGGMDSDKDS

B1: rG019 antibody (antibody, V domains shown)
VH: QVQLQQSGAELVKPGSSVKISCKASGYTFTRNFMHWIKQQPGNGLEWIGWIYCGDGETEYNQKFNGKATLTADRSSSTAYMELSRLTSEDSAVYFCARGVYGGFAGGYFDFWGQGVMVTVSS
VL: DIQMTQSPSLLSASVGDRVTLNCKASQNIYKNLAWYQQKLGEGPKLLIYDANTLQTGIPSRFSGSGSGSDFTLTISSLQPEDVATYFCQQYYSGWAFGGVTNLELKRA
notes: Rat monoclonal purified from hybridoma; also called rat anti-CDH6 monoclonal antibody clone rG019
B2: rG056 antibody (antibody, V domains shown)
VH: EVQLQESGPGLVKPSQSLSLTCSVTDYSITTYFWGWIRKFPGNKMEWMGYMSYRGGTSYNPSLKSRISITRDTSKNQFFLQLNSVTTEDTATYYCARCPNYGGHSLVFDYWGQGVMVTVSS
VL: DVQMTQSPSSLAASPGESVSISCRATKSIGIYLAWYQQKPGKTFKLLIYSGSTLQSGTPSRFSGSGSGTDFTLTIRSLEPEDFGLYFCQQFYENPFTFGSGTKLEIRR
notes: Rat monoclonal purified from hybridoma; also called rat anti-CDH6 monoclonal antibody clone rG056
B3: H02L02 antibody (antibody, human IgG1, kappa, V domains shown)
VH: EVQLVQSGAEVKKPGASVKVSCKASGYTFTRNFMHWVRQAPGQGLEWMGWIYPGDGETEYNQKFQGRVTITADRSTSTAYMELSSLRSEDTAVYFCARGVYGGFAGGYFDFWGQGTLVTVSS
VL: DIQMTQSPSSLSASVGDRVTITCKASQNIYKNLAWYQQKPGKAPKLLIYDANTLQTGVPSRFSGSGSGSDFTLTISSLQPEDFATYFCQQYYSGWAFGQGTKVEIKR
notes: Humanized IgG1/kappa (hH02 + hL02); also called humanized hG019 antibody H02L02
B4: H02L03 antibody (antibody, human IgG1, kappa, V domains shown)
VH: B3 VH
VL: B3 VL with P40L, K42E, A43G, S69T, F87Y
notes: Humanized IgG1/kappa (hH02 + hL03); also called humanized hG019 antibody H02L03
B5: H04L02 antibody (antibody, human IgG1, kappa, V domains shown)
VH: B3 VH with E1Q, V37I, N61A, I70L, F95Y
VL: B3 VL
notes: Humanized IgG1/kappa (hH04 + hL02); also called humanized hG019 antibody H04L02
B6: H01L02 antibody (antibody, human IgG1, kappa, V domains shown)
VH: B3 VH with N61A, R74T, F95Y
VL: B3 VL
notes: Humanized IgG1/kappa (hH01 + hL02); also called humanized hG019 antibody H01L02; labeled H01L02
B7: rG055 antibody (antibody, V domains shown)
VH: EVQLQESGPGLVRPSQSLSLSCSVTDYSITSNYWGWIRRFPGNKMEWMGYITYSGYTSYNPSLQSRISITRDTSKNQFFLQLNSVTAEDTATYYCARSINHGGYSYVVDAWGPGASVTVSS
VL: DVQMTHSPSYLAASPGESVSISCKTSKNISNYLVWYQQKPGEAYKLLIYSGSTLQSGTPSRFSGSGSGTDFTLTIRSLEPEDFGLYFCQQYYEKPFTFGSGTKLEIKR
notes: Rat monoclonal purified from hybridoma; also called rat anti-CDH6 monoclonal antibody clone rG055
B8: rG061 antibody (antibody, V domains shown)
VH: EVQLQESGPGLVKPSQSLSLTCSVTGYSITTYYWGWIRKFPGNKMEWMGYISYSGRTSYNPSLKSRMSITRDASKNQFFLQLNSVTTDDTATYYCARSPINHGGYWYFDFWGPGTMVTVSS
VL: B7 VL with H6Q, T25A, S26T, N28S, V34A, L46V, F87S, F96L
notes: Rat monoclonal purified from hybridoma; also called rat anti-CDH6 monoclonal antibody clone rG061

Experiments:
[1] = target: T1, EC3 deletion mutant of human CDH6; assay: flow cytometry; 293α cells transfected with EC3-deleted hCDH6 (open) vs untransfected control cells (shaded); anti-rat IgG-FITC
Protocol: The cells were cultured overnight under conditions of 37° C. and 5% CO₂, and thereafter, a cell suspension was prepared. […] Thereafter, the cells were suspended by the addition of each of the 4 rat anti-CDH6 monoclonal antibodies (clone Nos: rG019, rG055, rG056 and rG061), which had been prepared in Example 1)-7, or rat IgG control (R&D Systems, Inc.) (final concentration: 20 nM). The cells were left standing at 4° C. for 1 hour. The cells were washed twice with PBS supplemented with 5% FBS, and then suspended by the addition of Anti-Rat IgG (whole molecule)-FITC antibody produced in rabbit (Sigma-Aldrich Co. LLC) that had been 50-fold diluted with PBS supplemented with 5% FBS. The cells were left standing at 4° C. for 1 hour. The cells were washed twice with PBS supplemented with 5% FBS, followed by detection using a flow cytometer (Canto II; BD Biosciences). The data was analyzed using FlowJo (Tree Star, Inc.). In the histograms of FIGS. 2-1 to 2-6, the abscissa depicts FITC fluorescence intensity indicating the amount of the antibody bound, and the ordinate depicts cell count. […] Fluorescence intensity is enhanced when the antibody binds to full-length hCDH6 or each EC domain deletion mutant on the surface of cells. The rat IgG control binds to none of the transfected cells.

[2] = target: T2, rat CDH6 (on cells); assay: flow cytometry, MFI vs antibody concentration; 293α cells transiently transfected with rCDH6; PE anti-human IgG Fc
Protocol: The cells were cultured overnight under conditions of 37° C. and 5% CO₂, and thereafter, a cell suspension was prepared. […] Thereafter, the cells were suspended by the addition of each of the 4 humanized hG019 antibodies (clone Nos: H01L02, H02L02, H02L03 and H04L02), which had been prepared in Example 5)-5-3, or human IgG1 control (Calbiochem). The cells were left standing at 4° C. for 1 hour. The cells were washed twice with PBS supplemented with 5% FBS, and then suspended by the addition of anti-human IgG, Fc(gamma) PE goat F(ab′) (Jackson ImmunoResearch Laboratories, Inc.) that had been 500-fold diluted with PBS supplemented with 5% FBS. The cells were left standing at 4° C. for 1 hour. The cells were washed twice with PBS supplemented with 5% FBS, followed by detection using a flow cytometer (Canto II; BD Biosciences). The data was analyzed using FlowJo (Tree Star, Inc.). In FIGS. 6-1 and 6-2, the abscissa depicts antibody concentration, and the ordinate depicts the amount of the antibody bound based on mean fluorescence intensity. As shown in FIGS. 6-1 and 6-2, the human IgG1 control as a negative control binds to none of the CDH6-transfected cells. The 4 humanized hG019 antibodies (clone Nos: H01L02, H02L02, H02L03 and H04L02) bind to human CDH6 and cynomolgus monkey CDH6, but bind to neither mouse nor rat CDH6. None of the antibodies bind to the cells transfected with the empty vector pcDNA3.1 as a negative control.

Binder | binding result [1] | binding result [2]
B1 | no binding (tested: 20 nM (single concentration)) | –
B2 | no binding (tested: 20 nM (single concentration)) | –
B3 | – | no binding (tested: about 4 nM)
B4 | – | no binding (tested: about 4 nM)
B5 | – | no binding (tested: about 4 nM)
B6 | – | no binding (tested: about 4 nM)
B7 | no binding (tested: 20 nM (single concentration)) | –
B8 | no binding (tested: 20 nM (single concentration)) | –
